Laboratory results as given in patent publication US20150355184A1 (Merck Sharp & Dohme, published 2015).

What was measured:
[1] = target: T1, mouse PD-L1 (mouse, UniProt Q9EP73 19-238, limits assumed); assay: ELISA similar to the cell-based ELISA
T1 construct: Tested in 'a similar ELISA experiment'

[2] = target: T2, human PD-L1 expressed on cells (hPD-L1-CHOK1 / human PD-L1-CHO transfectants, LOX melanoma cells, human … (human, UniProt Q9NZQ7 19-290)); assay: flow cytometry on hPD-L1 positive LOX melanoma cells, 1 microgram/ml antibody, against isotype control mouse antibody
T2 construct: Cell surface PD-L1 on transfected CHO cells, on LOX melanoma cells or in FFPE tissue and cell pellets; also called human Programmed Death Ligand 1; mature PD-L1
From the text: Another experiment assessed the binding specificity of 20C3 and 22C3 for hPD-L1-expressing cells. HT144 cells which were known to be negative for expression of hPD-L1 by mRNA analysis (qPCR) and LOX melanoma cells known to express high levels of hPD-L1 mRNA (qPCR) were stained with 1 microgram/ml of purified mouse IgG from seven hybridomas generated in the experiments described in Example 1 above. An irrelevant isotype control mouse antibody was also used at the identical concentration. A fluorescent-labeled anti-mouse secondary antibody was used to detect the primary mouse antibodies. After staining and repeated washing, the cells were analyzed by flow cytometry, with median fluorescent intensities calculated for the population (>10,000 events collected).
20C3 and 22C3 as well as other hPD-L1 antibodies were employed as flow cytometric reagents to detect cell surface hPD-L1. The significant right shift of both the 20C3 and 22C3 histogram curves (FIG. 6A) as compared to the isotype control antibody curve reflects selective detection of hPD-L1 on the hPD-L1-positive LOX melanoma cell line.

T2 sequence (Q9NZQ7 19-290 limits assumed): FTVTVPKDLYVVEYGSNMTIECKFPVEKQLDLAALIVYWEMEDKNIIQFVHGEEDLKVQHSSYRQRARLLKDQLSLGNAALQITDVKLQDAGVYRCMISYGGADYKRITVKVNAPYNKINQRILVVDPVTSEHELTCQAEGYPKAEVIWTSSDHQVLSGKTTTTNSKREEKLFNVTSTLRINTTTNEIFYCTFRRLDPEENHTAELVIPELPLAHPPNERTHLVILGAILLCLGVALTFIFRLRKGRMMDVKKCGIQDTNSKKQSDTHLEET
T1 sequence (Q9EP73 19-238 limits assumed): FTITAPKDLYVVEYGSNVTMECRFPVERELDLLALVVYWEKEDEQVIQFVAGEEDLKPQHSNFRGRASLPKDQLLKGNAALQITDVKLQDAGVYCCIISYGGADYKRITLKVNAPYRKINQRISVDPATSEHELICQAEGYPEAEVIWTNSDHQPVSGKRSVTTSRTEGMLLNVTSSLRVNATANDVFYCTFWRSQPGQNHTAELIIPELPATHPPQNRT

B1: Monoclonal Antibody MEB037.20C3 (antibody, mouse IgG1, V domains shown)
VH: QVQVQQSGAELAEPGASVKMSCKASGYIFTSYWMHWLKQRPGQGLEWIGYINPSSDYNEYSEKFMDKATLTADKASTTAYMQLISLTSEDSAVYYCARSGWLVHGDYYFDYWGQGTTLTVSS
VL: DIVMSQSPSSLAVSAGEKVTMSCKSSQSLLNSRTRKNYLAWYQQKPGQSPKLLIYWASTRESGVPDRFTGSGSGTDFTLTISSVQAEDLAVYYCQQSYDVVTFGAGTKLELK
notes: Mouse IgG1 from hybridoma; also called antibody 20C3; antibody produced by hybridoma subclone MEB037.20C3.116
[1]
  binding result: no binding
[2]
  fold increase in MFI compared to isotype: ≥ 10 fold

B2: Monoclonal Antibody MEB037.22C3 (antibody, V domains shown)
VH: QVHLQQSGAELAKPGASVKMSCKASGYTFTSYWIHWIKQRPGQGLEWIGYINPSSGYHEYNQKFIDKATLTADRSSSTAYMHLTSLTSEDSAVYYCARSGWLIHGDYYFDFWGQGTTLTVSS
VL: DIVMSQSPSSLAVSAGEKVTMTCKSSQSLLHTSTRKNYLAWYQQKPGQSPKLLIYWASTRESGVPDRFTGSGSGTDFTLTISSVQAEDLAVYYCKQSYDVVTFGAGTKLELK
modifications: N-terminal residue of the mature heavy chain is either glutamine or pyro-glutamate (pE)
notes: Mouse IgG1 from hybridoma (allotype S414R of a mouse IgG1); also called antibody 22C3; antibody produced by hybridoma subclone MEB037.22C3.138
[1]
  binding result: no binding
[2]
  fold increase in MFI compared to isotype: ≥ 10 fold
